Source: patent US20170260531

What was measured:
[1] = test system: T1, VEGF-121 (Homo sapiens), P15692-9; experiment: filter; settings: Nap-dU at all P positions; 2'-OMe at C6,G9,C12,G15,A17,G18,Nap22,G28,G29; 0.035 nM in Table 14
T1 sequence: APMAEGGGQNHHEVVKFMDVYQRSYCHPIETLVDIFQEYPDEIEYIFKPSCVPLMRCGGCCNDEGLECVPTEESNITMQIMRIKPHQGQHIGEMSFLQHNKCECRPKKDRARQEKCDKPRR

PDGF-BB (Homo sapiens) = PDGF-BB (Homo sapiens) (UniProt P01127); experiment: filter; settings: Bn-dU
Sequence of UniProt P01127 (P01127 82-190): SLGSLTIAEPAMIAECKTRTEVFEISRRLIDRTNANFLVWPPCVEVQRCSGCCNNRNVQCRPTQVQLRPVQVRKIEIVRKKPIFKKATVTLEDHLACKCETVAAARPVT

Q: With “CCGTTCAAGTGCTTGTAGGATTTAAATGG [4867-31_192]” as the sequence, how does the Kd [1] read?
A: 0.023 nM

Q: “TACGACTACGTTACACGCGTTTATAGCG [4149-8_64]” was tested. Which Kd (PDGF-BB (Homo sapiens); C3 at position 1) did it give?
A: < 10 nM

Q: For “TTACACTACGTTACACGCGTTTATAGCG [4149-8_68]”, which Kd (PDGF-BB (Homo sapiens); C3 at position 5) is on record?
A: < 10 nM

Q: Which Kd (PDGF-BB (Homo sapiens); C3 at position 8) does the source give for “TTACGACACGTTACACGCGTTTATAGCG [4149-8_71]” here?
A: < 10 nM

Q: With “TTACGACTACGTTAACGCGTTTATAGCG [4149-8_78]” as the sequence, how does the Kd (PDGF-BB (Homo sapiens); C3 at position 15) read?
A: < 10 nM

Q: Which Kd (PDGF-BB (Homo sapiens); C3 at position 29) does the source give for “TTACGACTACGTTACACGCGTTTATAGC [4149-8_92]” here?
A: < 10 nM

Q: For “TTACGACTACGTTACACGCGTTTATAGCG [4149-8_44]”, which Kd (PDGF-BB (Homo sapiens); 2'-OMe at position 3) is on record?
A: < 10 nM

Q: For “TTACGACTACGTTACACGCGTTTATAGCG [4149-8_45]”, which Kd (PDGF-BB (Homo sapiens); 2'-OMe at position 4) is on record?
A: < 10 nM

Q: For “TTACGACTACGTTACACGCGTTTATAGCG [4149-8_46]”, which Kd (PDGF-BB (Homo sapiens); 2'-OMe at position 5) is on record?
A: < 10 nM

Q: How did the Kd (PDGF-BB (Homo sapiens); 2'-OMe at position 6) turn out when “TTACGACTACGTTACACGCGTTTATAGCG [4149-8_47]” was run?
A: < 10 nM

Q: How did the Kd (PDGF-BB (Homo sapiens); 2'-OMe at position 7) turn out when “TTACGACTACGTTACACGCGTTTATAGCG [4149-8_48]” was run?
A: < 10 nM

Q: How did the Kd (PDGF-BB (Homo sapiens); 2'-OMe at position 9) turn out when “TTACGACTACGTTACACGCGTTTATAGCG [4149-8_49]” was run?
A: < 10 nM

Q: How did the Kd (PDGF-BB (Homo sapiens); 2'-OMe at position 10) turn out when “TTACGACTACGTTACACGCGTTTATAGCG [4149-8_50]” was run?
A: < 10 nM

Q: With “TTACGACTACGTTACACGCGTTTATAGCG [4149-8_51]” as the sequence, how does the Kd (PDGF-BB (Homo sapiens); 2'-OMe at position 11) read?
A: < 10 nM

Q: Which Kd (PDGF-BB (Homo sapiens); 2'-OMe at position 14) does the source give for “TTACGACTACGTTACACGCGTTTATAGCG [4149-8_52]” here?
A: < 10 nM

Q: How did the Kd (PDGF-BB (Homo sapiens); 2'-OMe at position 15) turn out when “TTACGACTACGTTACACGCGTTTATAGCG [4149-8_53]” was run?
A: < 10 nM

Q: How did the Kd (PDGF-BB (Homo sapiens); 2'-OMe at position 16) turn out when “TTACGACTACGTTACACGCGTTTATAGCG [4149-8_54]” was run?
A: < 10 nM

Q: Which Kd (PDGF-BB (Homo sapiens); 2'-OMe at position 17) does the source give for “TTACGACTACGTTACACGCGTTTATAGCG [4149-8_55]” here?
A: < 10 nM

Q: How did the Kd (PDGF-BB (Homo sapiens); 2'-OMe at position 18) turn out when “TTACGACTACGTTACACGCGTTTATAGCG [4149-8_56]” was run?
A: < 10 nM

Q: “TTACGACTACGTTACACGCGTTTATAGCG [4149-8_57]” was tested. Which Kd (PDGF-BB (Homo sapiens); 2'-OMe at position 19) did it give?
A: < 10 nM

Q: Which Kd (PDGF-BB (Homo sapiens); 2'-OMe at position 20) does the source give for “TTACGACTACGTTACACGCGTTTATAGCG [4149-8_58]” here?
A: < 10 nM

Q: With “TTACGACTACGTTACACGCGTTTATAGCG [4149-8_59]” as the sequence, how does the Kd (PDGF-BB (Homo sapiens); 2'-OMe at position 24) read?
A: < 10 nM

Q: For “TTACGACTACGTTACACGCGTTTATAGCG [4149-8_60]”, which Kd (PDGF-BB (Homo sapiens); 2'-OMe at position 26) is on record?
A: < 10 nM

Q: How did the Kd (PDGF-BB (Homo sapiens); 2'-OMe at position 27) turn out when “TTACGACTACGTTACACGCGTTTATAGCG [4149-8_61]” was run?
A: < 10 nM

Q: Which Kd (PDGF-BB (Homo sapiens); 2'-OMe at position 28) does the source give for “TTACGACTACGTTACACGCGTTTATAGCG [4149-8_62]” here?
A: < 10 nM

Q: How did the Kd (PDGF-BB (Homo sapiens); 2'-OMe at position 29) turn out when “TTACGACTACGTTACACGCGTTTATAGCG [4149-8_63]” was run?
A: < 10 nM

Q: “TTACGACTACGTTACACGCGTTTATAGG [4149-8_91]” was tested. Which Kd (PDGF-BB (Homo sapiens); C3 at position 28) did it give?
A: < 10 nM

Q: “TTACGACTACGTTACACGCGTTTTAGCG [4149-8_87]” was tested. Which Kd (PDGF-BB (Homo sapiens); C3 at position 24) did it give?
A: < 10 nM

Q: With “TTACGACTACGTTACAGCGTTTATAGCG [4149-8_80]” as the sequence, how does the Kd (PDGF-BB (Homo sapiens); C3 at position 17) read?
A: < 10 nM

Q: “TTACGACTACGTTACCGCGTTTATAGCG [4149-8_79]” was tested. Which Kd (PDGF-BB (Homo sapiens); C3 at position 16) did it give?
A: < 10 nM

Q: Which Kd (PDGF-BB (Homo sapiens); C3 at position 10) does the source give for “TTACGACTAGTTACACGCGTTTATAGCG [4149-8_73]” here?
A: < 10 nM

Q: “TTACGACTCGTTACACGCGTTTATAGCG [4149-8_72]” was tested. Which Kd (PDGF-BB (Homo sapiens); C3 at position 9) did it give?
A: < 10 nM

Q: For “TTACGATACGTTACACGCGTTTATAGCG [4149-8_70]”, which Kd (PDGF-BB (Homo sapiens); C3 at position 7) is on record?
A: < 10 nM

Q: How did the Kd (PDGF-BB (Homo sapiens); C3 at position 6) turn out when “TTACGCTACGTTACACGCGTTTATAGCG [4149-8_69]” was run?
A: < 10 nM

Q: Which Kd (PDGF-BB (Homo sapiens); MBn-dU, Heg, C3, 2'-OMe) does the source give for TTACGTTACCGCGTTTATAGCG [4149-8_426] here?
A: > 10 nM

Q: With TTACGTTACCGTTTATAG [4149-8_405] as the sequence, how does the Kd (PDGF-BB (Homo sapiens); Heg, C3) read?
A: > 10 nM

Q: With “TTAGACTACGTTACACGCGTTTATAGCG [4149-8_67]” as the sequence, how does the Kd (PDGF-BB (Homo sapiens); C3 at position 4) read?
A: < 10 nM
